Laboratory results: patent publication US20220025381A1

Assays:
Test in all cases: cell-based or functional assay
[1] = biological target: CD176 PV1-tandem CaffVHH-L1-iCre-271C-NLS-BGHpA
[2] = biological target: T1, CD244 PV1-GAI-L1-RfxCas13d-560C-NLS-BGHpA
T1 sequence: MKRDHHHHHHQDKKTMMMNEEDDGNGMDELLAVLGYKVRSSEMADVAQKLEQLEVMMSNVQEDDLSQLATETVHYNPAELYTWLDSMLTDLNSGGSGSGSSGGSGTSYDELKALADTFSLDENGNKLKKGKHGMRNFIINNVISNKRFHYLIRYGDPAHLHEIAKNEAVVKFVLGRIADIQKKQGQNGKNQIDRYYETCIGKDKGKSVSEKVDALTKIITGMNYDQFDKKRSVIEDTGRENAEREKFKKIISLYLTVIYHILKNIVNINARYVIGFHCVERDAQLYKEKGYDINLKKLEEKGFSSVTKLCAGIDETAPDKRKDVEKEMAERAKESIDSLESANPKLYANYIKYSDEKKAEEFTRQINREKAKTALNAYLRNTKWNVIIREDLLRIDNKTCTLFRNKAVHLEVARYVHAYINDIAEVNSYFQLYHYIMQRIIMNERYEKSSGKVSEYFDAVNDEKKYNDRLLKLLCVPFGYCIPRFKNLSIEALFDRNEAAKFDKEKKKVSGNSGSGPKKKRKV

[3] = biological target: T2, CD374 PV1-RfxCas13d-560C-NLS-BGHpA
T2 sequence: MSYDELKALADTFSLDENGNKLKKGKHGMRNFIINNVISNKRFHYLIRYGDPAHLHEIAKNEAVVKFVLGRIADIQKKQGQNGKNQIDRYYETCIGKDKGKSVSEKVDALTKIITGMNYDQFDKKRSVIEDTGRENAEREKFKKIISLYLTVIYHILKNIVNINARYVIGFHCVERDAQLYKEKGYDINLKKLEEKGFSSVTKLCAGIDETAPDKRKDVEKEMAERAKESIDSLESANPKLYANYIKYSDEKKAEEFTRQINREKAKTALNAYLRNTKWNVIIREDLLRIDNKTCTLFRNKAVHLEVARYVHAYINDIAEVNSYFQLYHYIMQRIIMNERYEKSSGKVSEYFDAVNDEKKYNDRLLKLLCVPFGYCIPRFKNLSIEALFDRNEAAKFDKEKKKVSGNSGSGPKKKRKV

[4] = biological target: T3, CD246 PV1-GAI-L1-RfxCas13d-566C-NLS-BGHpA
T3 sequence: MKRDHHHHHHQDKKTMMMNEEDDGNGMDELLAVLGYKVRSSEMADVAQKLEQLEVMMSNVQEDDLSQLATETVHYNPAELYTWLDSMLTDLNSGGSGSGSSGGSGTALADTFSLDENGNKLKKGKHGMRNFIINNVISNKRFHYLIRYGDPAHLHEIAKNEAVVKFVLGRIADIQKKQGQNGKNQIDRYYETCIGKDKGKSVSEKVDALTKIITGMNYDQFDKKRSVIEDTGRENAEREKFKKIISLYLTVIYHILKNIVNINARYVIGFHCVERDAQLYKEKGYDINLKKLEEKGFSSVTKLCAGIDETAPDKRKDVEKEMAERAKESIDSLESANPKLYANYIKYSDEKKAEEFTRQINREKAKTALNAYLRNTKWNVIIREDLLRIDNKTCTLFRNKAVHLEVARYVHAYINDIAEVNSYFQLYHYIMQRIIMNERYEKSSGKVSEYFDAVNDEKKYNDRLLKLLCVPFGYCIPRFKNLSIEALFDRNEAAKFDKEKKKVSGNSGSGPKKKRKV

[5] = biological target: CD92 PV1-CaffVHH-L1-iCre-271C-NLS-BGHpA
Chain of CD92 PV1-CaffVHH-L1-iCre-271C-NLS-BGHpA (chain, as listed by the source): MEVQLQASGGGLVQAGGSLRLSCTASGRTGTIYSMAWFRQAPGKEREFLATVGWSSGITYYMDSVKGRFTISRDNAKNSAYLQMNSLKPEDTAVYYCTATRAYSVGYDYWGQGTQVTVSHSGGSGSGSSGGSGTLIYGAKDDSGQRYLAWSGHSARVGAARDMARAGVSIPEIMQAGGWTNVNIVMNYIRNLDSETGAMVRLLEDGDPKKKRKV

Chain of CD176 PV1-tandem CaffVHH-L1-iCre-271C-NLS-BGHpA (chain, as listed by the source): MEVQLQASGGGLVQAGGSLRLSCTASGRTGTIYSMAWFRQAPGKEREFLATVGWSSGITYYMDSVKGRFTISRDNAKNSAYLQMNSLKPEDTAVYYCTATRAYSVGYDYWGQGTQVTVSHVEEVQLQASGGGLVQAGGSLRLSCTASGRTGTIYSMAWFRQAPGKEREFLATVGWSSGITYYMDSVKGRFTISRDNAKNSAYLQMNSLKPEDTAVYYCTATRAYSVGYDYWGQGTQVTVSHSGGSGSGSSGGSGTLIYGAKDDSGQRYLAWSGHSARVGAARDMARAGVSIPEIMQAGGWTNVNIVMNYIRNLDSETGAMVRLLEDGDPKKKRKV

B1: CD175 PV1-iCre-N270-L1-tandem CaffVHH-NLS-BGHpA (protein)
chain: MSNLLTVHQNLPALPVDATSDEVRKNLMDMFRDRQAFSEHTWKMLLSVCRSWAAWCKLNNRKWFPAEPEDVRDYLLYLQARGLAVKTIQQHLGQLNMLHRRSGLPRPSDSNAVSLVMRRIRKENVDAGERAKQALAFERTDFDQVRSLMENSDRCQDIRNLAFLGIAYNTLLRIAEIARIRVKDISRTDGGRMLIHIGRTKTLVSTAGVEKALSLGVTKLVERWISVSGVADDPNNYLFCRVRKNGVAAPSATSQLSTRALEGIFEATHRSGGSGSGSSGGSGTMEVQLQASGGGLVQAGGSLRLSCTASGRTGTIYSMAWFRQAPGKEREFLATVGWSSGITYYMDSVKGRFTISRDNAKNSAYLQMNSLKPEDTAVYYCTATRAYSVGYDYWGQGTQVTVSHVEEVQLQASGGGLVQAGGSLRLSCTASGRTGTIYSMAWFRQAPGKEREFLATVGWSSGITYYMDSVKGRFTISRDNAKNSAYLQMNSLKPEDTAVYYCTATRAYSVGYDYWGQGTQVTVSHPKKKRKV
Q: Which results are given for B1?
A: caffeine concentration at maximum recombination efficiency [1]: 20 µM caffeine; recombination against the single CaffVHH version, same induction conditions [1]: < 13 fold

B2: CD243 PV1-RfxCas13d-N559-L1-GID-NLS-BGHpA (protein)
chain: MIEKKKSFAKGMGVKSTLVSGSKVYMTTFAEGSDARLEKIVEGDSIRSVNEGEAFSAEMADKNAGYKIGNAKFSHPKGYAVVANNPLYTGPVQQDMLGLKETLEKRYFGESADGNDNICIQVIHNILDIEKILAEYITNAAYAVNNISGLDKDIIGFGKFSTVYTYDEFKDPEHHRAAFNNNDKLINAIKAQYDEFDNFLDNPRLGYFGQAFFSKEGRNYIINYGNECYDILALLSGLRHWVVHNNEEESRISRTWLYNLDKNLDNEYISTLNYLYDRITNELTNSFSKNSAANVNYIAETLGINPAEFAEQYFRFSIMKEQKNLGFNITKLREVMLDRKDMSEIRKNHKVFDSIRTKVYTMMDFVIYRYYIEEDAKVAAANKSLPDNEKSLSEKDIFVINLRGSFNDDQKDALYYDEANRIWRKLENIMHNIKEFRGNKTREYKKKDAPRLPRILPAGRDVSAFSKLMYALTMFLDGKEINDLLTTLINKFDNIQSFLKVMPLIGVNAKFVEEYAFFKDSAKIADELRLIKSFARMGEPIADARRAMYIDAIRILGTNLSGGSGSGSSGGSGTMAASDEVNLIESRTVVPLNTWVLISNFKVAYNILRRPDGTFNRHLAEYLDRKVTANANPVDGVFSFDVLIDRRINLLSRVYRPAYADQEQPPSILDLEKPVDGDIVPVILFFHGGSFAHSSANSAIYDTLCRRLVGLCKCVVVSVNYRRAPENPYPCAYDDGWIALNWVNSRSWLKSKKDSKVHIFLAGDSSGGNIAHNVALRAGESGIDVLGNILLNPMFGGNERTESEKSLDGKYFVTVRDRDWYWKAFLPEGEDREHPACNPFSPRGKSLEGVSFPKSLVVVAGLDLIRDWQLAYAEGLKKAGQEVKLMHLEKATVGFYLLPNNNHFHNVMDEISAFVNAECPKKKRKV
Q: B2 was tested. Which basal knockdown of mCherry induced by gRNA, no gibberellin [2] did it give?
A: 10 to 20%

Q: And the drug-induced knockdown of mCherry with gRNA [2]?
A: > 75%

B3: CD373 PV1-RfxCas13d-N559-NLS-BGHpA (protein)
chain: MIEKKKSFAKGMGVKSTLVSGSKVYMTTFAEGSDARLEKIVEGDSIRSVNEGEAFSAEMADKNAGYKIGNAKFSHPKGYAVVANNPLYTGPVQQDMLGLKETLEKRYFGESADGNDNICIQVIHNILDIEKILAEYITNAAYAVNNISGLDKDIIGFGKFSTVYTYDEFKDPEHHRAAFNNNDKLINAIKAQYDEFDNFLDNPRLGYFGQAFFSKEGRNYIINYGNECYDILALLSGLRHWVVHNNEEESRISRTWLYNLDKNLDNEYISTLNYLYDRITNELTNSFSKNSAANVNYIAETLGINPAEFAEQYFRFSIMKEQKNLGFNITKLREVMLDRKDMSEIRKNHKVFDSIRTKVYTMMDFVIYRYYIEEDAKVAAANKSLPDNEKSLSEKDIFVINLRGSFNDDQKDALYYDEANRIWRKLENIMHNIKEFRGNKTREYKKKDAPRLPRILPAGRDVSAFSKLMYALTMFLDGKEINDLLTTLINKFDNIQSFLKVMPLIGVNAKFVEEYAFFKDSAKIADELRLIKSFARMGEPIADARRAMYIDAIRILGTNLPKKKRKV
Q: With B3 as the binder, how does the gRNA induced knockdown of mCherry without CID domains [3] read?
A: < 80%

B4: CD245 PV1-RfxCas13d-N565-L1-GID-NLS-BGHpA (protein)
chain: MIEKKKSFAKGMGVKSTLVSGSKVYMTTFAEGSDARLEKIVEGDSIRSVNEGEAFSAEMADKNAGYKIGNAKFSHPKGYAVVANNPLYTGPVQQDMLGLKETLEKRYFGESADGNDNICIQVIHNILDIEKILAEYITNAAYAVNNISGLDKDIIGFGKFSTVYTYDEFKDPEHHRAAFNNNDKLINAIKAQYDEFDNFLDNPRLGYFGQAFFSKEGRNYIINYGNECYDILALLSGLRHWVVHNNEEESRISRTWLYNLDKNLDNEYISTLNYLYDRITNELTNSFSKNSAANVNYIAETLGINPAEFAEQYFRFSIMKEQKNLGFNITKLREVMLDRKDMSEIRKNHKVFDSIRTKVYTMMDFVIYRYYIEEDAKVAAANKSLPDNEKSLSEKDIFVINLRGSFNDDQKDALYYDEANRIWRKLENIMHNIKEFRGNKTREYKKKDAPRLPRILPAGRDVSAFSKLMYALTMFLDGKEINDLLTTLINKFDNIQSFLKVMPLIGVNAKFVEEYAFFKDSAKIADELRLIKSFARMGEPIADARRAMYIDAIRILGTNLSYDELKSGGSGSGSSGGSGTMAASDEVNLIESRTVVPLNTWVLISNFKVAYNILRRPDGTFNRHLAEYLDRKVTANANPVDGVFSFDVLIDRRINLLSRVYRPAYADQEQPPSILDLEKPVDGDIVPVILFFHGGSFAHSSANSAIYDTLCRRLVGLCKCVVVSVNYRRAPENPYPCAYDDGWIALNWVNSRSWLKSKKDSKVHIFLAGDSSGGNIAHNVALRAGESGIDVLGNILLNPMFGGNERTESEKSLDGKYFVTVRDRDWYWKAFLPEGEDREHPACNPFSPRGKSLEGVSFPKSLVVVAGLDLIRDWQLAYAEGLKKAGQEVKLMHLEKATVGFYLLPNNNHFHNVMDEISAFVNAECPKKKRKV
Q: Which basal knockdown of mCherry induced by gRNA, no gibberellin [4] does the source give for B4 here?
A: 10 to 20%

Q: And the drug-induced knockdown of mCherry with gRNA [4]?
A: > 75%

B5: CD91 PV1-iCre-N270-L1-CaffVHH-NLS-BGHpA (protein)
chain: MSNLLTVHQNLPALPVDATSDEVRKNLMDMFRDRQAFSEHTWKMLLSVCRSWAAWCKLNNRKWFPAEPEDVRDYLLYLQARGLAVKTIQQHLGQLNMLHRRSGLPRPSDSNAVSLVMRRIRKENVDAGERAKQALAFERTDFDQVRSLMENSDRCQDIRNLAFLGIAYNTLLRIAEIARIRVKDISRTDGGRMLIHIGRTKTLVSTAGVEKALSLGVTKLVERWISVSGVADDPNNYLFCRVRKNGVAAPSATSQLSTRALEGIFEATHRSGGSGSGSSGGSGTMEVQLQASGGGLVQAGGSLRLSCTASGRTGTIYSMAWFRQAPGKEREFLATVGWSSGITYYMDSVKGRFTISRDNAKNSAYLQMNSLKPEDTAVYYCTATRAYSVGYDYWGQGTQVTVSHPKKKRKV
Q: How did the Cre reporter expression, share of transfected cells, 25 uM caffeine for 5 hours (% of transfected cells) [5] turn out when B5 was run?
A: 30

Q: What about the Cre reporter turned on, share of transfected cells, caffeine at least 50 uM, induction at least 5 hours (% of transfected cells) [5] of the same binder?
A: 38

Q: And the Cre reporter turned on, share of transfected cells, with caffeine, 48 hours (% of transfected cells) [5]?
A: > 80

Q: What about the caffeine concentration able to turn on Cre activity and generate reporter expression in 48 hours [5] of the same binder?
A: 0.1 µM caffeine

Q: What about the caffeine concentration at which similar, if not less, recombination efficiency was reached (single CaffVHH) [5] of the same binder?
A: 500 µM caffeine
